Test results published in US10052415B2, “Tropoelastin for promoting endothelial cell adhesion or migration” (University of Utah Research Foundation, priority 2005, dated 2018).
“Also recorded” adds a separate entry of the source.

Tests used:
[1] = test system: human embryonic kidney cells (HEK 293); test: Cell adhesion assay on coated culture plates, HEK 293 cells; assay type: cell-based; conditions: culture plates coated with 10 ug/ml protein; 0.1% BSA control
Method: (§1) Cells were plated on culture plates coated with either 0.1% BSA (as a control), 10 ug/ml fibronectin (FN), or 10 ug/ml recombinant tropoelastin, and assayed for adherence to the coated substrate.
(§2) 96-well plates were coated in duplicate overnight at 4° C. with 10 μg/ml collagen, fibronectin, tropoelastin, or 0.1% bovine serum albumin (BSA). Cells were harvested with 0.25% trypsin/1 mM EDTA, washed three times in adhesion buffer (0.5% BSA in basal medium), suspended at a working density of 5×10^5/ml in adhesion buffer, and then allowed to recover for 1 h at 37° C. (5% CO2). For integrin-blocking assays, 25 μg/ml anti-integrin antibodies (Chemicon, Temecula, Calif.) or control IgG (Jackson ImmunoResearch Laboratories, Inc, West Grove, Pa.) were added to the cell suspension during the recovery period. During the cell recovery, the coated 96-well plates were washed twice in dPBS and blocked for 1 h at 25° C. in 5.0% BSA (dPBS). The blocking solution was removed, and the wells were washed twice in dPBS. Recovered cells were added to the coated wells in a volume of 100 μl per well and placed at 37° C. for 30 minutes (5% CO2). […] Readings represent the number of adherent cells/well (average six high powered 100× fields, three taken from each of two separate wells).

[2] = test system: endothelial progenitor cells; test: Adhesion assay on coated stainless steel disks, endothelial progenitor cells; assay type: cell-based, human
Method: We conducted experiments to assess whether tropoelastin promoted the adhesion of endothelial progenitor cells. Tropoelastin was covalently conjugated to a stainless steel disk approximately 6 mm in diameter. As a control, anti-CD34 antibody (known to promote endothelial cell adhesion) was covalently conjugated to similar stainless steel disks. Endothelial progenitor cells were cultured with these coated disks, and adhesion of the cells to the coated disks was assayed.
(§3) Adhesion assays on 6 mm stainless steel disks (Orbus Medical Technologies, Ft Lauderdale, Fla.) pre-coated with anti-CD34 antibody, tropoelastin, coating vehicle, or uncoated metal were performed in a similar fashion as described above, with the following modifications: 48-well plates were used to hold the disks during the assay period to facilitate manipulation of the disks and twice the volume of cell suspension was applied (200 μl/well). Exemplary amounts of total protein covalently attached to each disk were approximately 100 micrograms. Post-adhesion, the wells were washed twice in dPBS, using a swirling motion to dislodge non-specifically adhered cells. […]

[3] = test system: endothelial progenitor cells; test: Cell spreading on coated stainless steel disks (phalloidin/DAPI staining); assay type: cell-based, human; conditions: Triton X-100 permeabilized, phalloidin and DAPI staining
Text: We also examined the appearance of the adherent endothelial cells.
Cell spreading was examined by permeabilizing the endothelial cells that had adhered to the coated metal surfaces with Triton X-100 and staining with phalloidin to highlight the actin cytoskeleton and DAPI to mark cell nuclei. […] Thus, stainless steel surfaces coated with either tropoelastin or anti-CD34 antibody would likely endothelialize more rapidly than would similar bare metal surfaces when intravascularly placed.
as §3

[4] = test system: A2058 human melanoma cells; test: Boyden chamber migration assay, A2058 cells; assay type: cell-based; conditions: FIG. 5
Method: Briefly, 16 h before the assay, 70% confluent 75 cm^2 flasks of human melanoma A2058 cell (ATCC, passage 3-12) or human aortic endothelial cells (HAEC; Cambrex, passage 4-7) were kept in basal media (dMEM+0.1% BSA, or EBM-2+1% FCS, respectively). Cells were lifted with 0.25% Trypsin/1 mM EDTA, diluted in 0.5% BSA (dMEM) and washed 3 times in basal media (dMEM+0.1% BSA) or (EBM-2+0.1% FCS,) and recovered in suspension at working density (2×10^6/ml for A2058 or 1.5×10^6 HAEC) for 1 h at 37° C. (5% CO2). For migration-inhibition assays, the cells were preincubated during the recovery period for 30 minutes in 25 μg/ml anti-integrin antibodies (Chemicon, Temecula, Calif.) or control IgG (Jackson ImmunoResearch, Inc.). All migration assays were performed in triplicate in a 48-well Boyden chamber apparatus (NeuroProbe, Cabin John, Md.). The recovered cells were added to the bottom chambers in a volume of 30 μl. The wells were overlayed with an 8 μm-pore polycarbonate membrane (NeuroProbe, Cabin John, Md.) and coated with 100 μg/ml Rat tail collagen (Trevigen, Gaithersburg, Md.) for A2058 cells or acetylated 1% gelatin from porcine skin (Sigma, St. Louis, Mo.) for HAEC. The apparatus was assembled and stored inverted at 37° C. (5 CO2) for a 2 h adhesion-period. […] Readings represent the number of cells migrating through the membrane (the sum of two high power X 20 fields/well, averaged for each sextuplicate-well set).

CHO cells = test: Cell adhesion assay on coated culture plates, CHO cells; assay type: cell-based; conditions: culture plates coated with 10 ug/ml protein; 0.1% BSA control
Method: as §1, §2

B1: tropoelastin: recombinant human tropoelastin lacking native signal sequence, 10× His tag and Factor Xa site on N-terminus, 706 amino acid residues (SEQ ID NO: 4) (protein, listed as Homo sapiens)
chain: MGHHHHHHHHHHSSGGIEGRGGVPGAIPGGVPGGVFYPGAGLGALGGGALGPGGKPLKPVPGGLAGAGLGAGLGAFPAVTFPGALVPGGVADAAAAYKAAKAGAGLGGVPGVGGLGVSAGAVVPQPGAGVKPGKVPGVGLPGVYPGGVLPGARFPGVGVLPGVPTGAGVKPKAPGVGGAFAGIPGVGPFGGPQPGVPLGYPIKAPKLPGGYGLPYTTGKLPYGYGPGGVAGAAGKAGYPTGTGVGPQAAAAAAAKAAAKFGAGAAGVLPGVGGAGVPGVPGAIPGIGGIAGVGTPAAAAAAAAAAKAAKYGAAAGLVPGGPGFGPGVVGVPGAGVPGVGVPGAGIPVVPGAGIPGAAVPGVVSPEAAAKAAAKAAKYGARPGVGVGGIPTYGVGAGGFPGFGVGVGGIPGVAGVPGVGGVPGVGGVPGVGISPEAQAAAAAKAAKYGVGTPAAAAAKAAAKAAQFALLNLAGLVPGVGVAPGVGVAPGVGVAPGVGLAPGVGVAPGVGVAPGVGVAPGIGPGGVAAAAKSAAKVAAKAQLRAAAGLGAGIPGLGVGVGVPGLGVGAGVPGLGVGAGVPGFGAVPGALAAAKAAKYGAAVPGVLGGLGALGGVGIPGGVVGAGPAAAAAAAKAAAKAAQFGLVGAAGLGGLGVGGLGVPGVGGLGGIPPAAAAKAAKYGVAARPGFGLSPIFPGGACLGKACGRKRK
[1]
  adhesion of HEK 293 cells to the coated substrate: do not adhere to tropoelastin
[2]; FIG. 7, protein covalently conjugated to 6 mm disk
  adhesion of endothelial progenitor cells to coated stainless steel disks: promoted adhesion of human endothelial cells to the metal device
[2]; coated metal disks
  cell adhesion compared to polysaccharide-coated control disks or to bare metal disks: significant increase in cell adhesion
[3]
  spreading of adherent cells across the surface of the coated disk: promoted spreading of the adherent cells across the surface of the device; also recorded: well spread cytoplasm and an organized actin cytoskeleton
[4]
  level of A2058 migration compared among tropoelastin and fragments: promoted migration of A2058 cell at comparable levels
CHO cells
  adhesion of CHO cells to the coated substrate: do not adhere to tropoelastin
